The values that follow are results of earlier work, collected in paper PMC7294136.

One data set deals with RAGE (Homo sapiens) (UniProt Q15109). The data set can be described thus: SPR. For orientation: In SPR one partner is held on a chip, and binding of the other changes the refractive index at the surface.
Data set [1] addresses RAGE V domain (Homo sapiens) (UniProt Q15109).

In the case of S100A4 (from UniProt P26447), the equilibrium dissociation constant (Kd) (commonly the equilibrium constant for the complex coming apart) with RAGE (Homo sapiens) is 138 nM.

In the case of S100B (from UniProt P04271), the Kd in data set [1] is 500 nM.
